One substance from publication PMC2116111 can be followed below.

The target in the assay is 420-kD polypeptide (human alpha 2-macroglobulin receptor) (human (endogenous in placenta)) (UniProt Q07954). Description: ELISA.
Sequence of UniProt Q07954 (Q07954 20-4544): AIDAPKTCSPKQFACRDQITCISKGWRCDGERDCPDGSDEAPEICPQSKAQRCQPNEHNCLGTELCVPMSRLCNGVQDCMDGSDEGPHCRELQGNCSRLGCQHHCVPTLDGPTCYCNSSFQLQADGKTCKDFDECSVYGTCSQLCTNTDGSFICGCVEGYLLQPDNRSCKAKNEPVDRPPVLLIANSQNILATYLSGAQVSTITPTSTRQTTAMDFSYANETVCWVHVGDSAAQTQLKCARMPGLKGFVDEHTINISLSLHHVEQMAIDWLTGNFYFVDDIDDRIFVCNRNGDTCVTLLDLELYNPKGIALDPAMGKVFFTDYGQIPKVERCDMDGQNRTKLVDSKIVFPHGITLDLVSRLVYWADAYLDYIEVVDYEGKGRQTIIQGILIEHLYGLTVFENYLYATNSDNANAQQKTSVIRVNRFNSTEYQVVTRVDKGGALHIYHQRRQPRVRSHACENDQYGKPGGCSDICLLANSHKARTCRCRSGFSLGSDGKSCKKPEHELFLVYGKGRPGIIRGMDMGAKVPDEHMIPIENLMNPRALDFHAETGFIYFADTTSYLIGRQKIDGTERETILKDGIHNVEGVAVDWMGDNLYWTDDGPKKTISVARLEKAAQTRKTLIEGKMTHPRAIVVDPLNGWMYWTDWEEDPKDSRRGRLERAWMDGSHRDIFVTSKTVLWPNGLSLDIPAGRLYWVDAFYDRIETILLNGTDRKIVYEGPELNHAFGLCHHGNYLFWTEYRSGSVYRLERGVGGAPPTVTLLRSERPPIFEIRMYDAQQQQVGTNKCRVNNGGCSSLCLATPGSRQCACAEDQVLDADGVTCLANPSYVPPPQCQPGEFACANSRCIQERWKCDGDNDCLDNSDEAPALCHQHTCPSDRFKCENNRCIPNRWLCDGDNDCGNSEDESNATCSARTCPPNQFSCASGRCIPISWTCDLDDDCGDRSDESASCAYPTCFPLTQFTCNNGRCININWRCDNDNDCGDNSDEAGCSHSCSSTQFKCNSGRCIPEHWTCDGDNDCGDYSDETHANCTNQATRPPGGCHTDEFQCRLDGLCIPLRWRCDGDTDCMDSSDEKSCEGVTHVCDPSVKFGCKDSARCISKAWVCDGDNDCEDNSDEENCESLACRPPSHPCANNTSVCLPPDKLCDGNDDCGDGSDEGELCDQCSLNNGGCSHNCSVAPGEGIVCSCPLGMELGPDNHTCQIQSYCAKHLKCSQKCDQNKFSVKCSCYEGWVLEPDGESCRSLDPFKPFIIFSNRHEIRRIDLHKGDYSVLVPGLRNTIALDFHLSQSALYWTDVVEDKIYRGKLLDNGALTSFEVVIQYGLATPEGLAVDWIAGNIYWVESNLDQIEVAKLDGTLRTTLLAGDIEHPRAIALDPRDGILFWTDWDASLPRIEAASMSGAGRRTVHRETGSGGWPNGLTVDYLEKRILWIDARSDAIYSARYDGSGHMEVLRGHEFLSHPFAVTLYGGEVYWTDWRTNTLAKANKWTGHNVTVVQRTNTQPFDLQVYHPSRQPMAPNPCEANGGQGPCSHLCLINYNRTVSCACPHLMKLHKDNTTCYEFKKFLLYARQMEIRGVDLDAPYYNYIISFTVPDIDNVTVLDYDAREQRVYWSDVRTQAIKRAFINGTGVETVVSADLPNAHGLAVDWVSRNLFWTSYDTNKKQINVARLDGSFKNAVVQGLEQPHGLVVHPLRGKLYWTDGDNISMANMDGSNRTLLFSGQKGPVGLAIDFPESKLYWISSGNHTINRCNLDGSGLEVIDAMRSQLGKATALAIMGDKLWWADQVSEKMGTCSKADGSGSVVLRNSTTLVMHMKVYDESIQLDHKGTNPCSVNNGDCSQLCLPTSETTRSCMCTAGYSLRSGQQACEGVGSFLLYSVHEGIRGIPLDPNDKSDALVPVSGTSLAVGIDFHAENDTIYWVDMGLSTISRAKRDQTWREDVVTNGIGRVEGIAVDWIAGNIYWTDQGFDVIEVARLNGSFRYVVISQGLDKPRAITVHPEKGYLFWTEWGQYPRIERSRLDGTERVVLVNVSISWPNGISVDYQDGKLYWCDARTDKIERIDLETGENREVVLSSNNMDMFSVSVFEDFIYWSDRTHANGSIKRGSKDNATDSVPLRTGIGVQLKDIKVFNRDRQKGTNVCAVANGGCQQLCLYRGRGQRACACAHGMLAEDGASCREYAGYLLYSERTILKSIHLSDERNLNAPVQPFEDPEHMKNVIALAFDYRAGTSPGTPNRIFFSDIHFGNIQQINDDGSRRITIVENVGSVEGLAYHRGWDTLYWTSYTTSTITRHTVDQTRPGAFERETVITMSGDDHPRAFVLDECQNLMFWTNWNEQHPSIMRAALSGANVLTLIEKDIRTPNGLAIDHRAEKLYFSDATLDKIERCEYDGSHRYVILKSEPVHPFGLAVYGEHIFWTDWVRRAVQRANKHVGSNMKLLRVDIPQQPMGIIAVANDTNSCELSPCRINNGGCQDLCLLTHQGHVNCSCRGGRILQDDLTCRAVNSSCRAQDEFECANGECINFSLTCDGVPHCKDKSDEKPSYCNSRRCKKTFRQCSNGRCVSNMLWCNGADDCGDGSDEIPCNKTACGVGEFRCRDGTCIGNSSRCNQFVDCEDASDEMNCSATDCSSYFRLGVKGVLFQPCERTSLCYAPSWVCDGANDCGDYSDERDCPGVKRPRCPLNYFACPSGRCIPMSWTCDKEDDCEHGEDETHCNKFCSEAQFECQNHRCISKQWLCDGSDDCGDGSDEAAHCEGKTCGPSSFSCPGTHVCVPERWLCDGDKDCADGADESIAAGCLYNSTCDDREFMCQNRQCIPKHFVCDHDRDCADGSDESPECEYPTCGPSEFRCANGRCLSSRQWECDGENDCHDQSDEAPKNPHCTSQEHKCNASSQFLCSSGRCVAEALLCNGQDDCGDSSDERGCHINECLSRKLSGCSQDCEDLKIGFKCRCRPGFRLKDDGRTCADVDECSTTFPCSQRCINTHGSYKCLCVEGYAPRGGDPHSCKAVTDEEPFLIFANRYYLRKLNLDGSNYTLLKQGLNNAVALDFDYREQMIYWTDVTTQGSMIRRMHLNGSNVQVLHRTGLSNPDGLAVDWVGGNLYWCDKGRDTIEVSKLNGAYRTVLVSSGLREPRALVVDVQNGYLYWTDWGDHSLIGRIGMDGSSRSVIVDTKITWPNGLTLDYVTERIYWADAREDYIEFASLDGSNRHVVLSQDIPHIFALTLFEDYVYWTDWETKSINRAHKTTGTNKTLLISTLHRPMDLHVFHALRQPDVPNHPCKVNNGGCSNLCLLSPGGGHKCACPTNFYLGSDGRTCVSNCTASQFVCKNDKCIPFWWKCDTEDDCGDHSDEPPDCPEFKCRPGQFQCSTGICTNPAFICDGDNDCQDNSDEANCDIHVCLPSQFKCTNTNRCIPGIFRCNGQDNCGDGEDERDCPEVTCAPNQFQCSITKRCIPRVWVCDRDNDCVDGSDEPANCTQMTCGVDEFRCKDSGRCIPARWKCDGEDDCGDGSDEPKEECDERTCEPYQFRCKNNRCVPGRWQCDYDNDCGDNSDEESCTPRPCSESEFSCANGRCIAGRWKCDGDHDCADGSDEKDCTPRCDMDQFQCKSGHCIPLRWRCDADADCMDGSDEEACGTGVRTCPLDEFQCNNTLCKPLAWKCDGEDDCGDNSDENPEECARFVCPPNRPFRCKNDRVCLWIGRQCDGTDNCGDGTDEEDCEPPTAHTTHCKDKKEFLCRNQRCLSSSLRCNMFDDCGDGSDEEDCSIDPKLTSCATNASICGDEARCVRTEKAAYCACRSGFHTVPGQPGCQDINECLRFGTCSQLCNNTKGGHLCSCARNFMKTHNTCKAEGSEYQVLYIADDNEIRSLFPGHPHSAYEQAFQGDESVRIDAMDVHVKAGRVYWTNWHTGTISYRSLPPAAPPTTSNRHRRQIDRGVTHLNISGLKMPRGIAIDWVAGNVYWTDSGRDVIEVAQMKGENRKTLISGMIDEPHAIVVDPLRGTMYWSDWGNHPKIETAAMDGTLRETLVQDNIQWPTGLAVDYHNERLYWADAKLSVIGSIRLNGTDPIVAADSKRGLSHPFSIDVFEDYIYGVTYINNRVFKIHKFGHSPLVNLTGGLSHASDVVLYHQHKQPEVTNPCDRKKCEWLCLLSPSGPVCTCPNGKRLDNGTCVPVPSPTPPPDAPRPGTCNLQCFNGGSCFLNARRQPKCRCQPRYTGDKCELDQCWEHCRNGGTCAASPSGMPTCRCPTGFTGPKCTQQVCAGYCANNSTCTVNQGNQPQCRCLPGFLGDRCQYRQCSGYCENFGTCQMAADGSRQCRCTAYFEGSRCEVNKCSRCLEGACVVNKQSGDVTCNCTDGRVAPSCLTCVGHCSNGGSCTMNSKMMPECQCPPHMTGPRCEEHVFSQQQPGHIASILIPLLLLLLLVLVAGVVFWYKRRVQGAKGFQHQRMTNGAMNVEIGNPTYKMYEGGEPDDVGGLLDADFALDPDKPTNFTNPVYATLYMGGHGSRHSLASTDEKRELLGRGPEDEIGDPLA

What is called Kd is the equilibrium constant for the complex coming apart. Read a high Kd as lower affinity. “alpha 2-macroglobulin-trypsin complex (from UniProt P01023 24-1474)” gave a Kd of 70 nM.
